In publication PMC6355839, “Functional role of PGAM5 multimeric assemblies and their polymerization into filaments” (Nature Communications, 2019):
Residue numbers refer to the chain shown, from its start. Numbers in names are those of the source.

B1: PGAM5 MM peptide (linker domain residues 54–67, multimerization motif) (peptide)
peptide: GPGVWDPNWDRREP
notes: PGAM5 linker domain residues 54-67, holding the multimerization motif WDxxWD (58-63); source: synthetic peptide, bought: Elim Biopharma
B2: ∆90 PGAM5 (residues 91–289), isolated phosphatase domain, wild type (domain or fragment, UniProt Q96HS1 91-289, looked up)
chain: HYKAKATRHIFLIRHSQYHVDGSLEKDRTLTPLGREQAELTGLRLASLGLKFNKIVHSSMTRAIETTDIISRHLPGVCKVSTDLLREGAPIEPDPPVSHWKPEAVQYYEDGARIEAAFRNYIHRADARQEEDSYEIFICHANVIRYIVCRALQFPPEGWLRLSLNNGSITHLVIRPNGRVALRTLGDTGFMPPDKITRS
notes: PGAM5 long isoform (PGAM5L), residues 91-289, phosphatase domain; His6 followed by a TEV site (ENLYFQS); cleavage not described; also called Δ90 PGAM5; source: E. coli BL21 DE3 pLysS, purified (Ni-NTA, SEC on Superose 6)
B3: ∆90 PGAM5 H105A (residues 91–289), catalytically dead phosphatase domain (domain or fragment, UniProt Q96HS1 91-289, looked up)
chain: B2 chain with H15A
notes: PGAM5 long isoform (PGAM5L), residues 91-289, phosphatase domain, H105A; His6 followed by a TEV site (ENLYFQS); cleavage not described; also called Δ90 PGAM5 H105A; ∆90 H105A PGAM5; source: E. coli BL21 DE3 pLysS, purified (Ni-NTA, SEC)
B4: ∆48 PGAM5 (residues 49–289), wild type (domain or fragment, UniProt Q96HS1 49-289, looked up)
chain: GGARPGPGVWDPNWDRREPLSLINVRKRNVESGEEELASKLDHYKAKATRHIFLIRHSQYHVDGSLEKDRTLTPLGREQAELTGLRLASLGLKFNKIVHSSMTRAIETTDIISRHLPGVCKVSTDLLREGAPIEPDPPVSHWKPEAVQYYEDGARIEAAFRNYIHRADARQEEDSYEIFICHANVIRYIVCRALQFPPEGWLRLSLNNGSITHLVIRPNGRVALRTLGDTGFMPPDKITRS
notes: PGAM5 long isoform (PGAM5L, residues 1-289), residues 49-289: linker domain with the multimerization motif (58-63) and the PGAM phosphatase domain; His6 is followed by a TEV site (ENLYFQS); the methods describe no TEV cleavage; also called Δ48 PGAM5; ∆48 WT; source: E. coli BL21 DE3 pLysS, purified (Ni-NTA, SEC on Superose 6)
B5: ∆48 PGAM5 R288E (domain or fragment, UniProt Q96HS1 49-289, looked up)
chain: B4 chain with R240E
notes: PGAM5 long isoform (PGAM5L), residues 49-289, R288E; also called ∆48 R288E; source: E. coli BL21 DE3 pLysS, purified (Ni-NTA, SEC)
B6: ∆48 PGAM5 A4 (WDxxWD of the MM replaced by AAxxAA) (domain or fragment, UniProt Q96HS1 49-289, looked up)
chain: B4 chain with W10A, D11A, W14A, D15A
notes: PGAM5 long isoform (PGAM5L), residues 49-289, W58A/D59A/W62A/D63A; also called ∆48 A4; A4 mutant; source: E. coli BL21 DE3 pLysS, purified (Ni-NTA, SEC)
B7: ∆48 PGAM5 H105A (domain or fragment, UniProt Q96HS1 49-289, looked up)
chain: B4 chain with H57A
notes: PGAM5 long isoform (PGAM5L), residues 49-289, H105A; also called ∆48 H105A; source: E. coli BL21 DE3 pLysS, purified (Ni-NTA, SEC)
B8: ∆48 PGAM5 Y198E (domain or fragment, UniProt Q96HS1 49-289, looked up)
chain: B4 chain with Y150E
notes: PGAM5 long isoform (PGAM5L), residues 49-289, Y198E; also called ∆48 Y198E; source: E. coli BL21 DE3 pLysS, purified (Ni-NTA, SEC)
B9: ∆48 PGAM5 R65A (domain or fragment, UniProt Q96HS1 49-289, looked up)
chain: B4 chain with R17A
notes: PGAM5 long isoform (PGAM5L), residues 49-289, R65A; also called ∆48 R65A; source: E. coli BL21 DE3 pLysS, purified (Ni-NTA, SEC)
B10: ∆48 PGAM5 R269E (domain or fragment, UniProt Q96HS1 49-289, looked up)
chain: B4 chain with R221E
notes: PGAM5 long isoform (PGAM5L), residues 49-289, R269E; source: E. coli BL21 DE3 pLysS, purified (Ni-NTA, SEC)

What was measured:
[1] = biological target: B3; experiment: crystal structure; ∆90 H105A PGAM5 7.5 mg/mL with ASK1 peptide:MM peptide:protein 3:3:1; 100 mM Tris-Cl pH 7.0, 200 mM MgCl2, 10% PEG 8000; 2.6 Å; twelve molecules in the asymmetric unit; settings: both partners purified
[2] = biological target: the molecule itself; experiment: SEC; Superose 6 10/300 GL Increase; 20 mM Tris-Cl pH 8.0, 150 mM NaCl, 0.5 mM TCEP; salt titration up to 1 M NaCl
[3] = biological target: the molecule itself; experiment: crystal structure; ∆90 H105A PGAM5 7.5 mg/mL with ASK1 peptide:MM peptide:protein 3:3:1; 100 mM Tris-Cl pH 7.0, 200 mM MgCl2, 10% PEG 8000; 2.6 Å; twelve molecules in the asymmetric unit
[4] = biological target: the molecule itself; experiment: crystal structure; ∆90 H105A PGAM5 5 mg/mL with ASK1 peptide 5:1, without MM peptide; 100 mM HEPES pH 7.5, 200 mM MgCl2, 30% PEG 400; 1.7 Å; two molecules in the asymmetric unit
[5] = biological target: the molecule itself; experiment: cell-based or functional assay
[6] = biological target: the molecule itself; experiment: cryo-EM structure; 2D class averages only (top view, 4.5 Å); 0.10 mg/mL in 20 mM Tris-Cl pH 8.0, 600 mM NaCl, 0.5 mM TCEP
[7] = biological target: the molecule itself; experiment: negative-stain electron microscopy; samples from SEC peaks (~0.01–0.1 mg/mL), 0.75% uranyl formate; 150 mM NaCl buffer; filaments decompose into rings at 300 and 750 mM NaCl

Binder	stoichiometry N [2]	Kcat/Km of dephosphorylation of the ASK1 phosphopeptide (20 nM enzyme) [5] [M⁻¹ s⁻¹]	also measured
B1	–	–	binding result [1]: binds
B2	2	–	–
B3	–	–	stoichiometry N [3]: 12; stoichiometry N [4]: 2
B4	2	19800	stoichiometry N [6]: 12
B5	–	13700	stoichiometry N [7]: 12
B6	2	–	–
B7	–	–	binding result [2]: binds
B8	2	10000	–
B9	2	3170	–
B10	–	–	binding result [7]: binds
